Results published in patent US11884740 (TG THERAPEUTICS, dated 2024).

Legend:
Assay in all cases: cell-based or functional assay
[1] = target: T1, FcγIIIA Receptor on the effector cells (human, UniProt P08637 17-254)
[2] = target: T1, FcγIIIA Receptor on the effector cells; remark: listed apart in the source
[3] = target: C1q Receptor in the complement system (rabbit serum as the source of complement) (rabbit)

T1 sequence (P08637 17-254): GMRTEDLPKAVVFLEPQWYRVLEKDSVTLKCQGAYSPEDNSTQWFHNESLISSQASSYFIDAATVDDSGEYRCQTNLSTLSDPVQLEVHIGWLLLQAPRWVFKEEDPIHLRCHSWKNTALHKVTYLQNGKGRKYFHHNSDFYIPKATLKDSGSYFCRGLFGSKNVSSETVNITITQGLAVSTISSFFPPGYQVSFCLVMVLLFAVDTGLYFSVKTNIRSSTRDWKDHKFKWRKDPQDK

EC50 (ADCC, Raji targets, KILR CD16a effector cells) [1]: 0.00242 ng/mL
EC50 of ADCC assay Using Primary NK Cells (Raji targets, LDH release) [2]: 49000 ng/mL
EC50 (CDC, Jeko-1 cells, rabbit complement) [3]: 670 ng/mL
B1: TG-1101 (TG Therapeutics, Inc.) (antibody, human IgG1, kappa)
heavy: not shown
light: QIVLSQSPAILSASPGEKVTMTCRASSSVSYMHWYQQKPGSSPKPWIYATSNLASGVPARFSGSGSGTSYSFTISRVEAEDAATYYCQQWTFNPPTFGGGTRLEIKRTVAAPSVFIFPPSDEQLKSGTASVVCLLNNFYPREAKVQWKVDNALQSGNSQESVTEQDSKDSTYSLSSTLTLSKADYEKHKVYACEVTHQGLSSPVTKSFNRGEC
